Measurements reported in patent publication US20150315252A1.

Target: CherryPicker DmrA chimeric protein
Experiment: cell-based or functional assay

## AcGFP-DmrC fusion protein
  amount of AcGFP-DmrC in microvesicles produced with A/C heterodimerizer (western blot against AcGFP standards): 5 ng/µL
  amount of AcGFP-DmrC in microvesicles produced without A/C heterodimerizer (western blot against AcGFP standards): 0.6 ng/µL
  packaging efficiency of AcGFP-DmrC into microvesicles, +A/C against -A/C: 8 fold
